Laboratory results as given in patent US10874724B2, “Enzymatic immunomodulation of solid tumors and uses thereof” (University of Houston System, priority 2015, dated 2020).

How the values were obtained:
4T1 cells = assay: Wound healing assay; type: cell-based; details: 10 μM Adenosine or 50 μM ADA or both; wound area at 48 hrs
Description: Briefly, 4T1 cells were cultured to confluence in 35 mm dishes in triplicates. 12 hrs later cell were rinsed with PBS and starved in low serum media (1.5 ml; 0.5%-0.1% serum in RPMI) overnight. […] Pictures were taken immediately of the wound area in phase contrast and 10× and another at 48 hrs. Wound area was calculated using imagej and plotted.

HT29 cells = assay: Effect of cAdo on cell proliferation (WST 1); type: cell-based; details: cAdo at 10 μM and above, WST 1 after 5 days
Description: 10^4 cells were seeded in 96 well dish in 100 μl. 12 hrs later the cells were treated with […] and 50 μM of cAdo and the cells were later assayed for cell number quantitatively using WST 1 reagent after 5 days. Briefly 10 μl of WST1 reagent was added to each well. The cells were incubated for 4 hrs. OD was measured using microtiter plate reader at 460 nm.

[1] = Stability of mADA enzymatic activity in cell culture medium; type: physicochemical; details: culture medium of 4T1, MCF7 and T47D cells; supernatant after 24 h, 48 h and 72 h; even after 3 days
Description: 4T1, MCF7 and T47D cells (1×10^5) were grown in 96 wells culture dish.

[2] = Enzyme activity of mADA-His and mADA-Fc (Adenosine Deaminase Assay Kit); type: biochemical; details: supernatant media of transfected HEK293F cells; OD at 550 nm
Description: Enzyme activity of mADA-His and mADA-Fc was assayed with Adenosine Deaminase Assay Kit (BQ 014-EALD). Briefly the 180 μl of reagent 1 was added to 96-well plate. Followed by 5 μl of supernatant media obtained from HEK293F cells transfected with mADA-His or mADA-Fc. Later 90 μl of reagent was added to each well and incubated for 8 mins at 37° C. The OD was measured at 550 nm.

[3] = intramuscular injection; cited from earlier work

Molecule: Nc1ncnc2c1ncn2[C@@H]1O[C@H](CO)[C@@H](O)[C@H]1O [Ado, adenosine, reference compound]
- Wound healing ability of 4T1 cells (4T1 cells): marginally promoted wound healing

Molecule: Nc1nc(Cl)nc2c1ncn2[C@@H]1O[C@H](CO)[C@@H](O)[C@H]1O [cAdo, 2-chloro Ado]
- Rate of cell proliferation (HT29 cells): marginal increase

B1: ADA: Adenosine deaminase (EC 3.5.4.4), enzyme degrading Ado into inosine and ammonia (protein, UniProt P00813 2-363, looked up)
Adenosine deaminase: AQTPAFDKPKVELHVHLDGSIKPETILYYGRRRGIALPANTAEGLLNVIGMDKPLTLPDFLAKFDYYMPAIAGCREAIKRIAYEFVEMKAKEGVVYVEVRYSPHLLANSKVEPIPWNQAEGDLTPDEVVALVGQGLQEGERDFGVKARSILCCMRHQPNWSPKVVELCKKYQQQTVVAIDLAGDETIPGSSLLPGHVQAYQEAVKSGIHRTVHAGEVGSAEVVKEAVDILKTERLGHGYHTLEDQALYNRLRQENMHFEICPWSSYLTGAWKPDTEHAVIRLKNDQANYSLNTDDPLIFKSTLDTDYQMTKRDMGFTEEEFKRLNINAAKSSFLPEDEKRELLDLLYKAYGMPPSASAGQNL
- Wound healing ability of 4T1 cells (4T1 cells): did not alter the wound healing ability

B2: mADA: recombinant purified mouse adenosine deaminase (protein, UniProt P03958 2-352, looked up)
Adenosine deaminase: AQTPAFNKPKVELHVHLDGAIKPETILYFGKKRGIALPADTVEELRNIIGMDKPLSLPGFLAKFDYYMPVIAGCREAIKRIAYEFVEMKAKEGVVYVEVRYSPHLLANSKVDPMPWNQTEGDVTPDDVVDLVNQGLQEGEQAFGIKVRSILCCMRHQPSWSLEVLELCKKYNQKTVVAMDLAGDETIEGSSLFPGHVEAYEGAVKNGIHRTVHAGEVGSPEVVREAVDILKTERVGHGYHTIEDEALYNRLLKENMHFEVCPWSSYLTGAWDPKTTHAVVRFKNDKANYSLNTDDPLIFKSTLDTDYQMTKKDMGFTEEEFKRLNINAAKSSFLPEEEKKELLERLYREYQ
- ADA enzyme activity in cell culture medium [1]: retained its activity

B3: mADA-His: mADA with His tag expressed in HEK293F cells, purified with Ni-NTA column (protein, UniProt P03958 2-352, looked up)
Adenosine deaminase: B2 Adenosine deaminase
modifications: His tag
- Enzyme activity in supernatant [2]: enzymatically active

B4: bADA: bovine adenosine deaminase; PEGylated bADA is FDA approved (protein, UniProt P56658 2-363, looked up)
Adenosine deaminase: AQTPAFNKPKVELHVHLDGAIKPETILYYGRKRGIALPADTPEELQNIIGMDKPLSLPEFLAKFDYYMPAIAGCREAVKRIAYEFVEMKAKDGVVYVEVRYSPHLLANSKVEPIPWNQAEGDLTPDEVVSLVNQGLQEGERDFGVKVRSILCCMRHQPSWSSEVVELCKKYREQTVVAIDLAGDETIEGSSLFPGHVKAYAEAVKSGVHRTVHAGEVGSANVVKEAVDTLKTERLGHGYHTLEDATLYNRLRQENMHFEVCPWSSYLTGAWKPDTEHPVVRFKNDQVNYSLNTDDPLIFKSTLDTDYQMTKNEMGFTEEEFKRLNINAAKSSFLPEDEKKELLDLLYKAYGMPSPASAEQCL
- Toxicity [3]: not shown any toxicity
